Data reported in publication PMC2682205, “Cdc7p-Dbf4p Regulates Mitotic Exit by Inhibiting Polo Kinase” (PLoS Genetics, 2009).

Molecular target: T1, GST-PoloPBD (Polo amino acids 357–705) (budding yeast (S. cerevisiae), UniProt P32562 357-705)
T1 construct: Cdc5p (Polo), budding yeast; amino acids 357-705 with the polo-box domain; Cloned into pGEX-KG; also called GST-PBD; source: E. coli BL21, purified (glutathione-agarose, dialysis)
T1 sequence (looked up): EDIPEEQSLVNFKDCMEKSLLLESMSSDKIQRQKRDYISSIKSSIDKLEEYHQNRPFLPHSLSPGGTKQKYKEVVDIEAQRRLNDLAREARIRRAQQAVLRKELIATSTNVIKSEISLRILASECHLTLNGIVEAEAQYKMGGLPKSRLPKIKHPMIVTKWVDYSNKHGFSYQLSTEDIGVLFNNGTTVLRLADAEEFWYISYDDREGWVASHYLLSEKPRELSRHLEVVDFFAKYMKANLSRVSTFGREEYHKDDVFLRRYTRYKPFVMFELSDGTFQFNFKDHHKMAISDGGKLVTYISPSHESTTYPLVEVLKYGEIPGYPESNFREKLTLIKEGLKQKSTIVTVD
Test: pull-down; GST or GST-PBD with Sumo or Sumo-Dbf4p on glutathione-agarose, 20 mM Tris-HCl pH 7.0, 300 mM NaCl, 0.5% NP-40, 1 mM EGTA, 1 hour at 4°C; blots with anti-GST-Polo PBD and anti-Smt3p
Settings: both partners purified

B1: Sumo-Dbf4p_(67–109) (domain or fragment, budding yeast (S. cerevisiae), UniProt P32325 66-109, looked up)
chain: QQQQHLHEKKRARIERARSIEGAVQVSKGTGLKNVEPRVTPKEL
notes: Dbf4p, budding yeast; Cloned into pSUMO (LifeSensors Inc.); also called Dbf4p PIR; source: E. coli BL21, purified (Ni++ column, imidazole gradient)
binding result: binds
